According to IntAct's records for PubMed 27150041:

B1: Smu-2 suppressor of mec-8 and unc-52 protein (Caenorhabditis elegans), Q9N4U5 (parent)
chain: MADNPTNLRNADFRKLLTSARSDRPAVSAFAKPADPKTGDDKPASFKHKHLKPAKFKKPQAAAHGKAKKEKTEADEDEAALKNILKNYRDRAAERRKQGDEKEDPSKLTAAYRAVPGDARSAQDQADLRKQAILESKYLGGDLEHTHLVKGLDYSLLNKVRSEIDKSDDDDDDDIDTAFDEKVTSSSSSSKPSEASLLAQELAQSHSENRMVRSLHRVLFKNEVPLHNQLFAKGRMAYVVELEDEETDIPTTLLRSLHDLPRAESAQSIQANNLIILKLSHVLSHLRAEPKKKKKEEFRVQLGSRDAPGAAAAAPGAKGDSIYDDLDDYVPSRKSRDSRDAGRRGSRRDRSRDRSRDRDRDRDRDNRDRYFEKSANSRREEEQNRREQQRERERAEQERRREREKEREQEKAKEREKKRKELEESSGYDECYPGGLVEMGGAWDSDEEADYSKMDAGPKKNQAVNRWDFDTEEEYASYMEGREALPKAAYQYGVKNGEGGRKNKKQSAVSDAKRLDRELNEINKIMDKRKAGGDGAGGGGDYKKPKY

Variants of: B1
Conditions: with smu1_caeel smu-1, G5EEG7
Sequence of smu1_caeel smu-1, G5EEG7 (G5EEG7 whole entry): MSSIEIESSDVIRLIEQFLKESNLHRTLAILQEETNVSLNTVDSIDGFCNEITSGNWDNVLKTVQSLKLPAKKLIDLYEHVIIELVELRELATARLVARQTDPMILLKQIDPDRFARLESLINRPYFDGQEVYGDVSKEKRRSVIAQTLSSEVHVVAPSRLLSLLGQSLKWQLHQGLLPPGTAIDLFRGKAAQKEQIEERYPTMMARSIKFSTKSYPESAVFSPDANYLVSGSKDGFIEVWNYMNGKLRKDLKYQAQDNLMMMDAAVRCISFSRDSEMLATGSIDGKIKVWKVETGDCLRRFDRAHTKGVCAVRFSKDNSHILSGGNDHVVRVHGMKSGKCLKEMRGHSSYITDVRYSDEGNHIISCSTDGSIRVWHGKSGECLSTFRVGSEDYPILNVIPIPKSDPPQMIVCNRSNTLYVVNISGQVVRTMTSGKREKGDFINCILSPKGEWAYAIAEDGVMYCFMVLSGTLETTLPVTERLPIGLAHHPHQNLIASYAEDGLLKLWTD

| effect of a mutation on the interaction | Variant |
| --- | --- |
| disrupting interaction strength | MADNPTNLRNADFRKLLTSARSDRPAVSAFAKPADPKTGDDKPASFKHKHLKPAKFKKPQAAAHGKAKKEKTEADEDEAALKNILKNYRDRAAERRKQGDEKEDPSKLTAAYRAVPGDARSAQDQADLRKQAILESKYLGGDLEHTHLVKGLDYSLLNKVRSEIDKSDDDDDDDIDTAFDEKVTSSSSSSKPSEASLLAQELAQSHSENRMRRSLHRVLFKNEVPLHNQLFAKGRMAYVVELEDEETDIPTTLLRSLHDLPRAESAQSIQANNLIILKLSHVLSHLRAEPKKKKKEEFRVQLGSRDAPGAAAAAPGAKGDSIYDDLDDYVPSRKSRDSRDAGRRGSRRDRSRDRSRDRDRDRDRDNRDRYFEKSANSRREEEQNRREQQRERERAEQERRREREKEREQEKAKEREKKRKELEESSGYDECYPGGLVEMGGAWDSDEEADYSKMDAGPKKNQAVNRWDFDTEEEYASYMEGREALPKAAYQYGVKNGEGGRKNKKQSAVSDAKRLDRELNEINKIMDKRKAGGDGAGGGGDYKKPKY [V212R] |
| disrupting interaction strength | MADNPTNLRNADFRKLLTSARSDRPAVSAFAKPADPKTGDDKPASFKHKHLKPAKFKKPQAAAHGKAKKEKTEADEDEAALKNILKNYRDRAAERRKQGDEKEDPSKLTAAYRAVPGDARSAQDQADLRKQAILESKYLGGDLEHTHLVKGLDYSLLNKVRSEIDKSDDDDDDDIDTAFDEKVTSSSSSSKPSEASLLAQELAQSHSENRMVRSLHRVLRKNEVPLHNQLFAKGRMAYVVELEDEETDIPTTLLRSLHDLPRAESAQSIQANNLIILKLSHVLSHLRAEPKKKKKEEFRVQLGSRDAPGAAAAAPGAKGDSIYDDLDDYVPSRKSRDSRDAGRRGSRRDRSRDRSRDRDRDRDRDNRDRYFEKSANSRREEEQNRREQQRERERAEQERRREREKEREQEKAKEREKKRKELEESSGYDECYPGGLVEMGGAWDSDEEADYSKMDAGPKKNQAVNRWDFDTEEEYASYMEGREALPKAAYQYGVKNGEGGRKNKKQSAVSDAKRLDRELNEINKIMDKRKAGGDGAGGGGDYKKPKY [F220R] |
